The test system of data set [1] is MMP-9. Briefly: PMA skin inflammation mouse model, MMP-9 quantification in skin tissue by ELISA. To be noted: skin tissue at injection site. It counts as in vivo. The method, then:
(§1) We established a mouse model of skin inflammation using phorbol 12-myristate 13-acetate (PMA) as a stimulant (FIG. 12A) which could induce the upregulation of MMPs captured by MMPSense probe. At the PMA injection sites 24 hours post PMA injection, we observed a red area whose extent was associated with the increase in PMA amounts injected (FIG. 12B). […] In addition, there was a basal of amount of MMP which generated the lowest fluorescent signal at PMA-free PBS buffer injection site. Thus, as more PMA was subcutaneously injected, the fluorescent intensity rose; and more importantly this increase in signal intensity correlated with the extent of the red area on the dorsal side of mice. Protein expression was also studied as skin tissue at the PMA injection sites were retrieved for MMP-9 quantification using ELISA kit (FIG. 12E). […] Overall, PMA subcutaneous injection with increasing amounts could induce subcutaneous inflammation with increasing levels of severity, resulting in more MMP-9 secretion.

A further data set has as its system MMPs. The experiment in a line: PMA skin inflammation mouse model, MMP activity by MMPSense fluorescent imaging. It counts as in vivo. To be noted: 24 hours after subcutaneous PMA injection. The method, then:
as §1

Data set [2] has as its system RAW 264.7 murine macrophages. Briefly: WST-1 relative metabolic activity of macrophages treated with hydrogel releasates. To be noted: 0.6 mg/mL freely dissolved drug, equivalent dosage; 72 hours treatment. Format: cell-based. The method, then:
RAW 264.7 murine macrophages were cultured in high glucose DMEM (Gibco Laboratories) supplemented with 10% FBS (Gibco Laboratories), and 1% penicillin/streptomycin (Gibco Laboratories) at 37° C. in 5% CO2 atmosphere. RAW 264.7 macrophages at passages of 20-30 were seeded in 96-well plates (Corning®) at an initial seeding density of 2×10^4 cells/well and incubated at 37° C. for 24 hours. A volume of 100 μL of each hybrid hydrogel (GEL-iP and scrGEL-iP) fabricated with 1.7% (w/v) of PEG and 5% (w/v) of ibuprofen-loaded PLGA microparticles was incubated in 500 μL of phenol red-free DMEM (Gibco Laboratories) culture medium for 2 hours in the presence and absence of 3 μg/ml of MMP-9 (FIG. 4A). […] Afterwards, the releasates were removed from the treated macrophages; and the in vitro metabolic activity of treated cells was evaluated using WST-1 cell proliferation assay (Abcam) as per manufacturer's protocol. […] A volume of 100 μL of this medium was then transferred into a new 96-well plate; and its absorbance at 450 nm and 690 nm was recorded using a microplate reader (SpectraMax M5). To calculate relative metabolic activity, all the absorbance values at 450 nm were subtracted by the values at the reference wavelength of 690 nm and the background absorbance to achieve corrected absorbance values. Afterward, the relative metabolic activity was calculated as follows: […]

Data set [3] can be described thus: Tube-inversion gelation screening of peptide crosslinkers with PEG-VS and ibu-PLGA particles. Format: physicochemical. The procedure: Peptide-crosslinked hydrogels were prepared by reacting 4-arm poly(ethylene glycol)-vinyl sulfone (PEG-VS) (20 kDa, Sigma Aldrich, St. Louis, Mo., USA) with bis-cysteine peptides (Genscript, Hong Kong) in stoichiometric ratio. Each precursor was dissolved in either triethanolamine (TEOA) buffer (0.3M) or PBS/NaOH buffer (pH=10). Typically, to prepare 117 μL of peptide-crosslinked hydrogels with 4.2% (w/v) PEG content, 5 mg of PEG-VS was dissolved in 100 μL of a buffer solution in a glass vial and mixed with a stoichiometric amount of a peptide crosslinker dissolved in 17 μL of the same buffer solution. Hydrogels with 4.2% (w/v) PEG content were evaluated in the preliminary screening of peptide crosslinkers. Hydrogels with 1.7% (w/v) PEG content were used in all subsequent in vitro and in vivo experiments. To form hybrid hydrogels consisting of PLGA particles (with or without ibuprofen) embedded in peptide-crosslinked hydrogels, the aforementioned precursors were dissolved separately in a buffer solution containing suspended PLGA particles at a concentration of 5% (w/v).
To identify an optimal peptide crosslinker for GEL-iP, we performed qualitative screening of 8 peptide sequences (Table 3 and FIG. 14) by evaluating the influence of substrate and spacer choices on the gelation and cleavability of hybrid hydrogels. In addition, buffers in which gelation occurred was also investigated because their environmental pH might affect the deprotonation of thiols and subsequently influence the crosslinking process. For each combination of substrate, spacer and buffer, the feasibility of gelation was visually inspected via a tube-inversion method. A stoichiometric amount of a peptide crosslinker was added to a glass vial containing a mixture of PEG-VS solution and suspended ibu-PLGA particles. In a parallel experiment, another vial with the same mixture composition, but without the peptide crosslinker of interest, was used as a control. The two vials were inverted at regular intervals until the mixture in one vial stopped flowing despite gravity indicating successful gelation. An example of the successful gelation of a typical hybrid hydrogel was captured in photographs of glass vials A1 and A2 (FIG. 2). […] This solid white appearance resulted from the white ibu-PLGA particles. In the absence of any peptide crosslinker, the precursor mixture in the control vial A2 remained free-flowing, indicating absence of gelation.

Data set [4] has as its target T1, MMP-9 (Homo sapiens, UniProt P14780). The experiment in a line: MMP-9 cleavability of hybrid hydrogels (released particles seen under optical microscope). It counts as biochemical. Also on record: purchased Merck. To be noted: 3 μg/ml MMP-9 in PBS, 37° C., 20 hours. The method, then: Each hybrid hydrogel of 20 μL volume in a 500 μL Eppendorf tube was incubated at 37° C. with 3 μg/ml of MMP-9 (83 kDa, Merck) in PBS buffer (DPBS/modified, without calcium and magnesium, HyClone™). In a control experiment, another hybrid hydrogel with the same composition was immersed in PBS buffer without MMP-9. After 20 hours of incubation, the medium surrounding the hybrid hydrogel was sampled onto a cover slip and observed under an optical microscope (Olympus CKX53SF, Japan) to inspect for the presence of released particles.
The selected concentration of MMP-9 is within the range of MMP-9 expression in clinical wound fluids and synovial fluids of patients with rheumatoid arthritis and osteoarthritis [Ladwig, G. P. et al. Wound Repair and Regeneration 10(1) 26-37 (2002); Li, Z. et al. Journal of Diabetes and its Complications 27(4) 380-382 (2013)]. In a typical successful cleavage by MMP-9, the photographs of vials B1 and B2 in FIG. 2 show the appearance of a hybrid hydrogel, which had the same composition as that in vial A1, after prolonged exposure to a buffer with and without MMP-9 respectively. […] The optical microscope image C1 verified the presence of ibu-PLGA particles in the resulting liquid mixture of vial B1 confirming the successful digestion of this hybrid hydrogel by MMP-9. In contrast, MMP-9-free PBS buffer added after gelation was observed as a clear liquid phase in vial B2. The optical microscope image C2 also confirmed the absence of any released lbu-PLGA particles in vial B2.
Target sequence in this assay (P14780 107-707 limits assumed): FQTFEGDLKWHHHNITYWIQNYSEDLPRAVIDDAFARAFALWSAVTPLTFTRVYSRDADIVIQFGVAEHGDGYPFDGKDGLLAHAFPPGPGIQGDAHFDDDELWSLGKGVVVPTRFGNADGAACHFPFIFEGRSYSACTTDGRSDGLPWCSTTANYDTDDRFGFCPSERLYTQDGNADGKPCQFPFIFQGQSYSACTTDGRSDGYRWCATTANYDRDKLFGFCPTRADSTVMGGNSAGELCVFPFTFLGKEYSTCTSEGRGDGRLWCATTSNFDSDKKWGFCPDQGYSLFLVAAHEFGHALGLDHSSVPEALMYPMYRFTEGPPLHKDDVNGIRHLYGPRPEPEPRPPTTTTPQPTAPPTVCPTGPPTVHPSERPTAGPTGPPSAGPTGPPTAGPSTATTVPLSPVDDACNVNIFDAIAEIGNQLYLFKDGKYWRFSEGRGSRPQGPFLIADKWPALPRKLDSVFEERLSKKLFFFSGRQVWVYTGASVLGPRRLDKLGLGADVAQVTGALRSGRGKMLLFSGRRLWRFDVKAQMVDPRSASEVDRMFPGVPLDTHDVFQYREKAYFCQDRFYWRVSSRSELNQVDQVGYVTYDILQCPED

Data set [5] has as its target T1, MMP-9. The experiment in a line: Protease specificity of peptide anchor (MMP-9 versus Cathepsin B and HNE). Format: biochemical. From the text: A) The cumulative liberation of ibuprofen (LIbu) increased corresponding to the increase in the MMP-9 concentrations. Absence of diffusion-driven basal release in the absence of MMP9 protease (bottom line). B) The specificity of GPRSLSGRRCG (SEQ ID NO: 20) sensitivity to MMP-9 compared to Cathepsin B and HNE. Error bars represent standard error of the means of n=4 replicates.
FIG. 9 supports the hypothesis that protease-sensitive drug release can be achieved from an ibuprofen-conjugated PEG hydrogel upon exposure to clinically relevant protease concentration of 1 ug/ml. […] LC-MS analysis confirmed the presence of the liberated ibuprofen bearing fragment (ibu-GPQG, LC peak at elution time of 14.6 min, MS peak at m/z=546.20) in the supernatant collected after 2 days of hydrogel exposure to MMP9 solution (FIG. 9B). In contrast, this peak is absent from the supernatant collected when the hydrogel was exposed to a control buffer without MMP9. Since the concentration of active MMP9 in human wound fluid falls within the range of 0.3-4.8 μg/ml, our data in FIG. 10A support the feasibility of drug release at a clinically relevant protease concentration.
Target sequence in this assay (P14780 94-707): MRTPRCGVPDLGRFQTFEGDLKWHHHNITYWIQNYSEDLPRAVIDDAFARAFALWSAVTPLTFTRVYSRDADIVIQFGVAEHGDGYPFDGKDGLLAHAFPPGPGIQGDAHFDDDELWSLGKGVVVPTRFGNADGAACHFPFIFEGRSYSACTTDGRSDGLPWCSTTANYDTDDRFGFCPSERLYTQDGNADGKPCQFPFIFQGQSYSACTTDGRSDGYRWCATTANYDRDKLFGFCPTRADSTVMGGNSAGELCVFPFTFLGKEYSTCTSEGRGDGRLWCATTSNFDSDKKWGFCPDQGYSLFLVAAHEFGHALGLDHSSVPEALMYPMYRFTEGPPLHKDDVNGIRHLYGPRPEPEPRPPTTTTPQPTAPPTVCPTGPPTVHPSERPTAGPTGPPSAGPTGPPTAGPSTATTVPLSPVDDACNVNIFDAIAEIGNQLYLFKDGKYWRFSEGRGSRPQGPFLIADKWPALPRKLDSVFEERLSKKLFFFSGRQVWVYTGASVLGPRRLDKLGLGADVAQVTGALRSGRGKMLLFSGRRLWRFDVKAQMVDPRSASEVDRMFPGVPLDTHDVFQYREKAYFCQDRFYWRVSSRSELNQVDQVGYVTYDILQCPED

For data set [6], the target named is T1, MMP-9. The experiment in a line: Degradation of plural protease-cleavable hydrogel, MMP-9 alone. Format: biochemical. The procedure: (§2) A) Schematic of the mechanism of dual protease-responsive combinational hydrogel system. B) Photographs show the cleavability of H2-M2 combinational hydrogels over 24 hours (n=3). (i) Control, (ii) With HNE protease; (iii) With MMP-9 protease; and (iv) With both HNE and MMP-9 proteases. C) Quantification of the average number of PLGA particles released from combinational hydrogels in the presence of zero, single or dual proteases over 24 hours (n=3). Error bars represent s.e.m of n=3 replicates. p-values were determined by one-way ANOVA with Tukey post-hoc analysis. (***) and (ns) denote p≤0.001 and p≥0.05 (not significant) respectively.
Target sequence in this assay (P14780 94-707): as above

The target of the next data set is T2, HNE (Homo sapiens, UniProt P08246).
T2 sequence (P08246 30-267): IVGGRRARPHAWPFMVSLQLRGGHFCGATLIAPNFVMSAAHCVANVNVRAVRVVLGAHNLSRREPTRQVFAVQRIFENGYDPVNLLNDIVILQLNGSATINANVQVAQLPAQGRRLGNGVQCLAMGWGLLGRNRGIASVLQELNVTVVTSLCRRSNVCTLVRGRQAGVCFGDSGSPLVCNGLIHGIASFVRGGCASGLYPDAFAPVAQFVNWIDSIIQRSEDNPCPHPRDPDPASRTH
Briefly: Degradation of plural protease-cleavable hydrogel, HNE alone. It counts as biochemical. The method, then: as §2

Entries after “also recorded” stand apart in the source; their conditions may differ.

Consider 13 molecules from patent publication US20230039279A1, “INFLAMMATION-RESPONSIVE ANTI-INFLAMMATORY HYDROGELS” (Nanyang Technological University, priority 2019, published 2023).

For the molecule `CCCCCCCCCCCCCC(=O)O[C@@H]1[C@@H](C)[C@@]2(O)[C@@H](C=C(CO)C[C@]3(O)C(=O)C(C)=C[C@@H]23)[C@@H]2C(C)(C)[C@]12OC(C)=O` [PMA, phorbol 12-myristate 13-acetate], in the data set with MMP-9 [1], the “amount of MMP-9 secreted, difference 4 μg versus 0 μg PMA” value was determined as 10 fold and the “amount of MMP-9 secreted, difference 4 μg versus 0.4 μg PMA” value stood at 5 fold. Moreover, the “MMP activity (fluorescent signal), difference 4 μg versus 0.4 μg of PMA” value with MMPs was found to be 1.9 fold.

In the case of `CC(C)Cc1ccc(C(C)C(=O)O)cc1` (stereo not drawn) [ibuprofen], the “relative metabolic activity of macrophages” value in data set [2] is listed as about 0%.

Turning to “GCRD-AVRW↓LLTA-DRCG (GCRDAVRWLLTADRCG; GCRD-AVRWLLTA-DRCG) [peptide (8)]”, the “gelation by crosslinking with PEG-VS” value in data set [3] (PBS/NaOH buffer) and in data set [3] (TEOA buffer) was “preventing gelation” in each case.

In the case of “GCRD-GPQG↓IWGQ-DRCG (GCRDGPQGIWGQDRCG; GCRD-GPQGIWGQ-DRCG) [peptide (5), spacer GCRD]”, in the data set with MMP-9 [4], the “cleavability of hybrid hydrogel crosslinked with the peptide by MMP-9” value (“cleavability” for short) is reported as “could be digested by MMP-9”.

For “GCRD-KGPRS↓LSGK-DRCG (GCRDKGPRSLSGKDRCG; GCRD-KGPRSLSGK-DRCG) [(7)]”, in the data set with MMP-9 [4], the “cleavability” value was “could be digested by MMP-9; also recorded: successful hydrogel cleavage by MMP-9”.

For the molecule “GCRD-LGRM↓GLPGK-DRCG (GCRDLGRMGLPGKDRCG; GCRD-LGRMGLPGK-DRCG) [peptide (6), spacer GCRD, same substrate as peptide (2)]”, in the data set with MMP-9 [4], the “cleavability” value was “not cleaved”.

As to “GCRR-AVRW↓LLTA-RRCG (GCRRAVRWLLTARRCG; GCRR-AVRWLLTA-RRCG) [peptide (3)]”, the “cleavability” value in the data set with MMP-9 [4] was “not cleaved”. In addition, the “gelation by crosslinking with PEG-VS” value is listed as “could induce gelation” in data set [3] (PBS/NaOH buffer) and “not” in data set [3] (TEOA buffer).

On to “GCRR-GPQG↓IWGQ-RRCG (GCRRGPQGIWGQRRCG; GCRR-GPQGIWGQ-RRCG) [peptide (4), spacer GCRR]”, for which the “cleavability” value in the data set with MMP-9 [4] is “could be digested by MMP-9; also recorded: successful hydrogel cleavage by MMP-9”.

For “GCRR-KGPRSLSGK-RRCG (GCRRKGPRSLSGKRRCG; GCRR-KGPRSLSGK-RRCG) [peptide (1)]”, the “cleavability” value with MMP-9 [4] is “could be digested by MMP-9; also recorded: successful hydrogel cleavage by MMP-9”.

“GCRR-LGRM↓GLPGK-RRCG (GCRRLGRMGLPGKRRCG; GCRR-LGRMGLPGK-RRCG) [peptide (2), spacer GCRR, same substrate as peptide (6)]”: the “cleavability” value with MMP-9 [4] is on record as “not cleaved”.

For the molecule GPRSLSGRRCG (GPRSLSGRRCG), the “specificity toward MMP-9 compared to cathepsin B and HNE” value with MMP-9 [5] is given as “good specificity toward MMP-9”.

In the case of GRCR-GPRS↓LSG-RCRG [M2], at MMP-9 [6], the “preferential cleavage of peptide substrate by MMP-9” value is “preferentially cleaved”.

In the case of GRCR-PMAV↓VQSVP-RCRG [H2], the “preferential cleavage of peptide substrate by HNE” value at HNE is on record as “preferentially cleaved”.
